Test results as given in the supplement of paper PMC10065799, “High-throughput profiling of sequence recognition by tyrosine kinases and SH2 domains using bacterial peptide display” (eLife, 2023).
Blank lines part the entries; values can stand above or below the sequence they belong to.

What was measured:
AncSZ = test: phosphorylation enrichment, bacterial display (enrichment ratio); higher = better substrate or ligand; peptides without Tyr show the background
EPHB1 = EPHB1 (UniProt P54762); test: as above
EPHB2 = EPHB2 (UniProt P29323); test: as above
FGFR1 = FGFR1 (UniProt P11362); test: as above
FGFR3 = FGFR3 (UniProt P22607); test: as above
Fer (mouse) = test: as above
Fes = Fes (UniProt P07332); test: as above
Fyn = Fyn (UniProt P06241); test: as above
Hck = Hck (UniProt P08631); test: as above
Jak2 = Jak2 (UniProt O60674); test: as above
MERTK = MERTK (UniProt Q12866); test: as above
c-Abl (mouse) = test: as above
c-Src = test: as above
Grb2 SH2 = Grb2 SH2 (UniProt P62993); test: SH2 binding enrichment of the phosphorylated peptide, bacterial display (enrichment ratio); higher = better substrate or ligand; peptides without Tyr show the background
SHP2-C SH2 = test: as above
c-Src SH2 = test: as above
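Throughout, for SH2 binding enrichment of the phosphorylated peptide, bacterial display: peptide library displayed on the E. coli surface as eCPX fusions, selected cells deep-sequenced, score is each peptide's frequency after selection divided by its frequency in the input.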
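Throughout, for phosphorylation enrichment, bacterial display: 11-residue human phosphosite peptides and single-mutation variants displayed on the E. coli surface, counted by deep sequencing, each peptide's frequency after selection divided by its frequency in the unselected input library; frequency after pTyr selection over input frequency; kinase dosed for 20-30% of maximal phosphorylation in three min.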

Chain of MERTK (Q12866 whole entry, looked up): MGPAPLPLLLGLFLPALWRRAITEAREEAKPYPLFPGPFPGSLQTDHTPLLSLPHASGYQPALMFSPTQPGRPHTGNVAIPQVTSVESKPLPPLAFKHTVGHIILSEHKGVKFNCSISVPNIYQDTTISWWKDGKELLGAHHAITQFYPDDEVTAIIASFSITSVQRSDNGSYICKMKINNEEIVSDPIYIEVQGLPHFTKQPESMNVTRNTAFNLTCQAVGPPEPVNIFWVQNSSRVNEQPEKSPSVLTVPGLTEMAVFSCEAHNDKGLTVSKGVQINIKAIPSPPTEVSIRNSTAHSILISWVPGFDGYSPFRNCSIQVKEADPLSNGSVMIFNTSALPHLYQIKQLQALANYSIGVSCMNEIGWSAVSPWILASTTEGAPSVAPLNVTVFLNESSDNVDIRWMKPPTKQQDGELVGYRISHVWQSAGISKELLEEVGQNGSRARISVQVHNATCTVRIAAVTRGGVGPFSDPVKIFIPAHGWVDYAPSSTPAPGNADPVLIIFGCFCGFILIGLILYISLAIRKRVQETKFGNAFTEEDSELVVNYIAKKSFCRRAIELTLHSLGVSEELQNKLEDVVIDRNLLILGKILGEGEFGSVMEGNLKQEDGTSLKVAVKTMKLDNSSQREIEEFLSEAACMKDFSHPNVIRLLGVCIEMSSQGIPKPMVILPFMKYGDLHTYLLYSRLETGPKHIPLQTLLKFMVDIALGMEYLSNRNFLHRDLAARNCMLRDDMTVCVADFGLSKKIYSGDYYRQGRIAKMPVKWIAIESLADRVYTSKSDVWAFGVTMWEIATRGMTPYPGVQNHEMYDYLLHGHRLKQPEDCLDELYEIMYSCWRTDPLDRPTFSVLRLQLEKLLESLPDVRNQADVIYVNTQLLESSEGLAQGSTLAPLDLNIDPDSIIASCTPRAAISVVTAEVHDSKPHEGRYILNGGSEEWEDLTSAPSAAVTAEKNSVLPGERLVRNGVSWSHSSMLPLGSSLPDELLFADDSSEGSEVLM
Chain of Fyn (P06241 whole entry, looked up): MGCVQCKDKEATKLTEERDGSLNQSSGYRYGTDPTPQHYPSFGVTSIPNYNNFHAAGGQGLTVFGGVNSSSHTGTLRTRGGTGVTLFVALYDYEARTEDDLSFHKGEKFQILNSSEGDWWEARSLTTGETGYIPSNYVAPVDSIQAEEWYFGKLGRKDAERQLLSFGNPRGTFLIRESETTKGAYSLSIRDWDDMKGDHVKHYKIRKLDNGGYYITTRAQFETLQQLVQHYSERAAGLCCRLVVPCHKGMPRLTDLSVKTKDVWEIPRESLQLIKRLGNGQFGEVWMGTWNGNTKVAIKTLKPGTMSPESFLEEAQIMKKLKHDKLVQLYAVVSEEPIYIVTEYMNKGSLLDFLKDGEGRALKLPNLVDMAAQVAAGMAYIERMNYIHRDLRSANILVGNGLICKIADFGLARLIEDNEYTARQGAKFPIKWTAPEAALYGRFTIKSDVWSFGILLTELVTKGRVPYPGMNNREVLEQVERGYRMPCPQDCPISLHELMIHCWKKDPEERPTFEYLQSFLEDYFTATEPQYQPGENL
Chain of Jak2 (O60674 whole entry, looked up): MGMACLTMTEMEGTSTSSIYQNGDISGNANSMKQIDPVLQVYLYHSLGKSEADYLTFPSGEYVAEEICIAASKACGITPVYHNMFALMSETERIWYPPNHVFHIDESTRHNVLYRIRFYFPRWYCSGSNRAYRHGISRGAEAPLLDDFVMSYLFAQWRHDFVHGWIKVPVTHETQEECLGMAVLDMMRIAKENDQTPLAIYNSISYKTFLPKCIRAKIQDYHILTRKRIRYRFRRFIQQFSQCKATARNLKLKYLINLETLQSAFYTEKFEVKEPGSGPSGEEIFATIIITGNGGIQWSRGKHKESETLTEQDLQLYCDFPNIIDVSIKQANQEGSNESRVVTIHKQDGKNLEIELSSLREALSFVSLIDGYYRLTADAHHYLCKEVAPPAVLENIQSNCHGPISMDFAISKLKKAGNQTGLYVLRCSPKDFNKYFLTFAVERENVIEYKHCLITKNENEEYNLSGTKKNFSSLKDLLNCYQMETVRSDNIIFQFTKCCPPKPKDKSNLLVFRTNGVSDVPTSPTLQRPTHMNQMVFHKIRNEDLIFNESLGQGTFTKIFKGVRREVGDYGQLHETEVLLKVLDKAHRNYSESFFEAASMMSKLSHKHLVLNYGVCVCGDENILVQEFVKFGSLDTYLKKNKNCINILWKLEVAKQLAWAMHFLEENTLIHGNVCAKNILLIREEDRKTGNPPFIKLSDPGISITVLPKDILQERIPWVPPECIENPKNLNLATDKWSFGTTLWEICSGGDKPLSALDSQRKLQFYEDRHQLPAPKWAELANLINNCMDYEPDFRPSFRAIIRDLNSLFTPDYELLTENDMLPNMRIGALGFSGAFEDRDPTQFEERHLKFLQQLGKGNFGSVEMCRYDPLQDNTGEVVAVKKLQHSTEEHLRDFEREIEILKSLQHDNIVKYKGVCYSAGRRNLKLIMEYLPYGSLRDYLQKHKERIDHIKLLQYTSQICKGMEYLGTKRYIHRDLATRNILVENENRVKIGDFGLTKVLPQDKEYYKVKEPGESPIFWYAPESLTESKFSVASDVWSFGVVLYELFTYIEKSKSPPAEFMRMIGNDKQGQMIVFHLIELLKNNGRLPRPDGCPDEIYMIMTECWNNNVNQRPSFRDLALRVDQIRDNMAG
Chain of Hck (P08631 whole entry, looked up): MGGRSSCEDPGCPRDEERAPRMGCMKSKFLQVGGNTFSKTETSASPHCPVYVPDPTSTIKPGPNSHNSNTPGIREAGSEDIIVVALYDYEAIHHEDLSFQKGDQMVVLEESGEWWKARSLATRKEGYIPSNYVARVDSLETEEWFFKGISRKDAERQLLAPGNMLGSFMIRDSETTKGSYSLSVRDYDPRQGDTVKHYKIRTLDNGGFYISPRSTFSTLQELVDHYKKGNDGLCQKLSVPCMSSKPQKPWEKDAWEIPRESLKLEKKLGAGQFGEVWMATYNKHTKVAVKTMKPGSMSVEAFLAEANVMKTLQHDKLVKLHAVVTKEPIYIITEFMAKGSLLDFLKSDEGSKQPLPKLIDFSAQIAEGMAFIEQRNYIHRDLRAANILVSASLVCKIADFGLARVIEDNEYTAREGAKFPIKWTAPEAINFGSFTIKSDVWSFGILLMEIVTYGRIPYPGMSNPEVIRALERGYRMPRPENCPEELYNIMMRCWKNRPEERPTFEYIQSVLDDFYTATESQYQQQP
Chain of FGFR1 (P11362 whole entry, looked up): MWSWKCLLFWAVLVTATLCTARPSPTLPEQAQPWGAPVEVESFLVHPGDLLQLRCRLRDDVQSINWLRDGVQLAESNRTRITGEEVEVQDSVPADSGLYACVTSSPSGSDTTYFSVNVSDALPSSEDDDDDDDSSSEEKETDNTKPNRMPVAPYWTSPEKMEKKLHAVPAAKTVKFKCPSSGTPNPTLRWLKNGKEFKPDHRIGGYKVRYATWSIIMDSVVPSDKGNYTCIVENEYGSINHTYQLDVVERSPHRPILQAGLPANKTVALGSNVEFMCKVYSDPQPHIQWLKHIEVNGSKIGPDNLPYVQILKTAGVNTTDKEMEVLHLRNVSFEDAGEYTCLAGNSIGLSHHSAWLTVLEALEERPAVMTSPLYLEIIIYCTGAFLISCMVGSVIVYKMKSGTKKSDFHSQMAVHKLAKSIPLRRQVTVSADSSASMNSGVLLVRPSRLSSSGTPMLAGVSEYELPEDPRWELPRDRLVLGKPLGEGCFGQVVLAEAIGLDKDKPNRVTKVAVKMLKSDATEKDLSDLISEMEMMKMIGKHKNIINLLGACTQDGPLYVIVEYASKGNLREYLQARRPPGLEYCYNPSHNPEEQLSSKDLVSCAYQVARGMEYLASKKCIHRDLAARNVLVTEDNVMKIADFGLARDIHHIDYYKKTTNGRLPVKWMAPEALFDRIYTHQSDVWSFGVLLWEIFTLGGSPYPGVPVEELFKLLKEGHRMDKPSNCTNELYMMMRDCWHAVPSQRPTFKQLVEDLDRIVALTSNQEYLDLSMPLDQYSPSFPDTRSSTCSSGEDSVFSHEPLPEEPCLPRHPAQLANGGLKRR
Chain of FGFR3 (P22607 whole entry, looked up): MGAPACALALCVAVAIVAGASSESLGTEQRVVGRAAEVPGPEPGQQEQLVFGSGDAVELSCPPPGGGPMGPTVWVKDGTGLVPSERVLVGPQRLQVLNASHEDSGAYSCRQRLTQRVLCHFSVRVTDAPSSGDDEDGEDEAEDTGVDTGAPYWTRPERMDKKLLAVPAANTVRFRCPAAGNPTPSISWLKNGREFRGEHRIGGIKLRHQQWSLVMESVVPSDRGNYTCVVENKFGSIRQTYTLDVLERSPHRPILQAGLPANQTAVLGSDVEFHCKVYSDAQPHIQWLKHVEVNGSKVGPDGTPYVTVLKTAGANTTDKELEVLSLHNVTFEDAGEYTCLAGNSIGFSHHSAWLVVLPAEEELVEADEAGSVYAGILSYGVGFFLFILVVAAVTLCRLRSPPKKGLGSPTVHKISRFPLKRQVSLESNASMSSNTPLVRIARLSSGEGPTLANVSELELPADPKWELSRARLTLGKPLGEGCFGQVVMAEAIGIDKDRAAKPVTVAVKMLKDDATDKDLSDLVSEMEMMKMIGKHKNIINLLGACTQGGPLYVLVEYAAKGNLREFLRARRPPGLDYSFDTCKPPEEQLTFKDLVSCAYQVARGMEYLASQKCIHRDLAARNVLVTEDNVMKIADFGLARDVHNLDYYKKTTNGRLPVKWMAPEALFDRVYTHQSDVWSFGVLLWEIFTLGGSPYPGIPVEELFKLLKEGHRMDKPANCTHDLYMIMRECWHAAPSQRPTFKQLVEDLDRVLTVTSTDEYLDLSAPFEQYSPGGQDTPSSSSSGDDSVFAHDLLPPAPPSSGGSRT

Sequence: EKLQQYIAPGM [EPHB3_Y600]
- phosphorylation enrichment (AncSZ): 0.589
- phosphorylation enrichment (EPHB1): 0.401
- phosphorylation enrichment (EPHB2): 0.35
- phosphorylation enrichment (FGFR1): 0.389
- phosphorylation enrichment (FGFR3): 0.506
- phosphorylation enrichment (Fer (mouse)): 0.435
- phosphorylation enrichment (Fes): 0.759
- phosphorylation enrichment (Fyn): 0.334
- phosphorylation enrichment (Hck): 0.363
- phosphorylation enrichment (Jak2): 0.927
- phosphorylation enrichment (MERTK): 0.328
- phosphorylation enrichment (c-Abl (mouse)): 0.582
- phosphorylation enrichment (c-Src): 0.412
- SH2 binding enrichment (Grb2 SH2): 0.696
- SH2 binding enrichment (SHP2-C SH2): 0.734
- SH2 binding enrichment (c-Src SH2): 0.47

Sequence: SELVCYDARVH [MET_Y971_R970C]
- phosphorylation enrichment (AncSZ): 1.07
- phosphorylation enrichment (EPHB1): 0.592
- phosphorylation enrichment (EPHB2): 0.673
- phosphorylation enrichment (FGFR1): 0.547
- phosphorylation enrichment (FGFR3): 0.679
- phosphorylation enrichment (Fer (mouse)): 0.49
- phosphorylation enrichment (Fes): 1.14
- phosphorylation enrichment (Fyn): 0.603
- phosphorylation enrichment (Hck): 0.816
- phosphorylation enrichment (Jak2): 0.867
- phosphorylation enrichment (MERTK): 0.496
- phosphorylation enrichment (c-Abl (mouse)): 0.721
- phosphorylation enrichment (c-Src): 0.482
- SH2 binding enrichment (Grb2 SH2): 0.874
- SH2 binding enrichment (SHP2-C SH2): 0.739
- SH2 binding enrichment (c-Src SH2): 0.561

Sequence: AIDVGYRLIDC [AKR1B1_Y40_H42L]
- phosphorylation enrichment (AncSZ): 0.874
- phosphorylation enrichment (EPHB1): 0.456
- phosphorylation enrichment (EPHB2): 0.45
- phosphorylation enrichment (FGFR1): 0.514
- phosphorylation enrichment (FGFR3): 0.594
- phosphorylation enrichment (Fer (mouse)): 0.424
- phosphorylation enrichment (Fes): 1.2
- phosphorylation enrichment (Fyn): 0.428
- phosphorylation enrichment (Hck): 0.417
- phosphorylation enrichment (Jak2): 0.792
- phosphorylation enrichment (MERTK): 0.39
- phosphorylation enrichment (c-Abl (mouse)): 0.861
- phosphorylation enrichment (c-Src): 0.512
- SH2 binding enrichment (Grb2 SH2): 0.993
- SH2 binding enrichment (SHP2-C SH2): 0.7
- SH2 binding enrichment (c-Src SH2): 2.02

Sequence: PYSEPYADYGG [APBA1_Y187]
- phosphorylation enrichment (AncSZ): 2.11
- phosphorylation enrichment (EPHB1): 1.04
- phosphorylation enrichment (EPHB2): 1.18
- phosphorylation enrichment (FGFR1): 3.21
- phosphorylation enrichment (FGFR3): 2.23
- phosphorylation enrichment (Fer (mouse)): 1.34
- phosphorylation enrichment (Fes): 1.72
- phosphorylation enrichment (Fyn): 1.89
- phosphorylation enrichment (Hck): 1.41
- phosphorylation enrichment (Jak2): 1.56
- phosphorylation enrichment (MERTK): 0.911
- phosphorylation enrichment (c-Abl (mouse)): 1.03
- phosphorylation enrichment (c-Src): 4.44
- SH2 binding enrichment (Grb2 SH2): 0.675
- SH2 binding enrichment (SHP2-C SH2): 0.651
- SH2 binding enrichment (c-Src SH2): 6.47

Sequence: SNYRAYATEPQ [TNNI3_Y29_H34Q]
- phosphorylation enrichment (AncSZ): 0.699
- phosphorylation enrichment (EPHB1): 0.461
- phosphorylation enrichment (EPHB2): 0.467
- phosphorylation enrichment (FGFR1): 0.389
- phosphorylation enrichment (FGFR3): 0.475
- phosphorylation enrichment (Fer (mouse)): 0.444
- phosphorylation enrichment (Fes): 0.72
- phosphorylation enrichment (Fyn): 0.419
- phosphorylation enrichment (Hck): 0.497
- phosphorylation enrichment (Jak2): 0.597
- phosphorylation enrichment (MERTK): 0.428
- phosphorylation enrichment (c-Abl (mouse)): 0.464
- phosphorylation enrichment (c-Src): 0.44
- SH2 binding enrichment (Grb2 SH2): 0.75
- SH2 binding enrichment (SHP2-C SH2): 0.672
- SH2 binding enrichment (c-Src SH2): 0.384

Sequence: EEGNPSYSSAR [MCCC2_Y520_Y520S]
- phosphorylation enrichment (AncSZ): 0.962
- phosphorylation enrichment (EPHB1): 0.514
- phosphorylation enrichment (EPHB2): 0.539
- phosphorylation enrichment (FGFR1): 0.529
- phosphorylation enrichment (FGFR3): 0.554
- phosphorylation enrichment (Fer (mouse)): 0.513
- phosphorylation enrichment (Fes): 1
- phosphorylation enrichment (Fyn): 0.497
- phosphorylation enrichment (Hck): 0.585
- phosphorylation enrichment (Jak2): 0.776
- phosphorylation enrichment (MERTK): 0.501
- phosphorylation enrichment (c-Abl (mouse)): 1.25
- phosphorylation enrichment (c-Src): 0.542
- SH2 binding enrichment (Grb2 SH2): 0.825
- SH2 binding enrichment (SHP2-C SH2): 0.647
- SH2 binding enrichment (c-Src SH2): 0.517

Sequence: LRAGVYREKDQ [DNM2_Y626_P627R]
- phosphorylation enrichment (AncSZ): 0.882
- phosphorylation enrichment (EPHB1): 0.392
- phosphorylation enrichment (EPHB2): 0.295
- phosphorylation enrichment (FGFR1): 0.335
- phosphorylation enrichment (FGFR3): 0.524
- phosphorylation enrichment (Fer (mouse)): 0.349
- phosphorylation enrichment (Fes): 0.636
- phosphorylation enrichment (Fyn): 0.35
- phosphorylation enrichment (Hck): 0.449
- phosphorylation enrichment (Jak2): 0.38
- phosphorylation enrichment (MERTK): 0.398
- phosphorylation enrichment (c-Abl (mouse)): 0.514
- phosphorylation enrichment (c-Src): 0.448
- SH2 binding enrichment (Grb2 SH2): 0.646
- SH2 binding enrichment (SHP2-C SH2): 0.478
- SH2 binding enrichment (c-Src SH2): 0.427

Sequence: FSGLAYTMERS [GLUD1_Y512_H507Y_YF]
- phosphorylation enrichment (AncSZ): 0.822
- phosphorylation enrichment (EPHB1): 0.492
- phosphorylation enrichment (EPHB2): 0.465
- phosphorylation enrichment (FGFR1): 0.455
- phosphorylation enrichment (FGFR3): 0.63
- phosphorylation enrichment (Fer (mouse)): 0.361
- phosphorylation enrichment (Fes): 0.858
- phosphorylation enrichment (Fyn): 0.544
- phosphorylation enrichment (Hck): 0.486
- phosphorylation enrichment (Jak2): 0.7
- phosphorylation enrichment (MERTK): 0.364
- phosphorylation enrichment (c-Abl (mouse)): 0.613
- phosphorylation enrichment (c-Src): 0.935
- SH2 binding enrichment (Grb2 SH2): 0.856
- SH2 binding enrichment (SHP2-C SH2): 0.838
- SH2 binding enrichment (c-Src SH2): 0.5

Sequence: RLLRGHDQSAY [HLA-C_Y137_Y137H]
- phosphorylation enrichment (AncSZ): 0.632
- phosphorylation enrichment (EPHB1): 0.403
- phosphorylation enrichment (EPHB2): 0.336
- phosphorylation enrichment (FGFR1): 0.417
- phosphorylation enrichment (FGFR3): 0.455
- phosphorylation enrichment (Fer (mouse)): 0.387
- phosphorylation enrichment (Fes): 0.587
- phosphorylation enrichment (Fyn): 0.336
- phosphorylation enrichment (Hck): 0.549
- phosphorylation enrichment (Jak2): 0.754
- phosphorylation enrichment (MERTK): 0.371
- phosphorylation enrichment (c-Abl (mouse)): 0.597
- phosphorylation enrichment (c-Src): 0.361
- SH2 binding enrichment (Grb2 SH2): 0.959
- SH2 binding enrichment (SHP2-C SH2): 0.747
- SH2 binding enrichment (c-Src SH2): 0.623

The next lines start with results.

- SH2 binding enrichment (Grb2 SH2): 0.781
- SH2 binding enrichment (SHP2-C SH2): 0.662
- SH2 binding enrichment (c-Src SH2): 0.557
Sequence: DGMADYSDPSF [CDC5L_Y459_YF]
- phosphorylation enrichment (AncSZ): 1.92
- phosphorylation enrichment (EPHB1): 1.72
- phosphorylation enrichment (EPHB2): 3.21
- phosphorylation enrichment (FGFR1): 0.911
- phosphorylation enrichment (FGFR3): 1
- phosphorylation enrichment (Fer (mouse)): 0.592
- phosphorylation enrichment (Fes): 1.2
- phosphorylation enrichment (Fyn): 0.488
- phosphorylation enrichment (Hck): 0.63
- phosphorylation enrichment (Jak2): 1.12
- phosphorylation enrichment (MERTK): 0.5
- phosphorylation enrichment (c-Abl (mouse)): 1.04
- phosphorylation enrichment (c-Src): 0.501

- SH2 binding enrichment (Grb2 SH2): 0.936
- SH2 binding enrichment (SHP2-C SH2): 1.06
- SH2 binding enrichment (c-Src SH2): 0.695
Sequence: FADIAYIYRHG [PAH_Y166_N167I]
- phosphorylation enrichment (AncSZ): 0.842
- phosphorylation enrichment (EPHB1): 0.506
- phosphorylation enrichment (EPHB2): 0.497
- phosphorylation enrichment (FGFR1): 0.616
- phosphorylation enrichment (FGFR3): 0.583
- phosphorylation enrichment (Fer (mouse)): 0.486
- phosphorylation enrichment (Fes): 0.978
- phosphorylation enrichment (Fyn): 0.432
- phosphorylation enrichment (Hck): 0.445
- phosphorylation enrichment (Jak2): 1.02
- phosphorylation enrichment (MERTK): 0.416
- phosphorylation enrichment (c-Abl (mouse)): 0.685
- phosphorylation enrichment (c-Src): 0.638

- SH2 binding enrichment (Grb2 SH2): 1.28
- SH2 binding enrichment (SHP2-C SH2): 0.456
- SH2 binding enrichment (c-Src SH2): 0.388
Sequence: WIGRKYKKVRF [F8_Y442_R437W]
- phosphorylation enrichment (AncSZ): 0.567
- phosphorylation enrichment (EPHB1): 0.547
- phosphorylation enrichment (EPHB2): 0.518
- phosphorylation enrichment (FGFR1): 0.506
- phosphorylation enrichment (FGFR3): 0.54
- phosphorylation enrichment (Fer (mouse)): 0.492
- phosphorylation enrichment (Fes): 0.611
- phosphorylation enrichment (Fyn): 0.552
- phosphorylation enrichment (Hck): 0.546
- phosphorylation enrichment (Jak2): 0.571
- phosphorylation enrichment (MERTK): 0.527
- phosphorylation enrichment (c-Abl (mouse)): 0.676
- phosphorylation enrichment (c-Src): 0.619

- SH2 binding enrichment (Grb2 SH2): 0.936
- SH2 binding enrichment (SHP2-C SH2): 1.03
- SH2 binding enrichment (c-Src SH2): 0.985
Sequence: VLALWYFFLTN [ZDHHC23_Y127_H132N_YF]
- phosphorylation enrichment (AncSZ): 1.16
- phosphorylation enrichment (EPHB1): 0.746
- phosphorylation enrichment (EPHB2): 0.63
- phosphorylation enrichment (FGFR1): 2.05
- phosphorylation enrichment (FGFR3): 1.94
- phosphorylation enrichment (Fer (mouse)): 0.595
- phosphorylation enrichment (Fes): 1.68
- phosphorylation enrichment (Fyn): 0.535
- phosphorylation enrichment (Hck): 0.62
- phosphorylation enrichment (Jak2): 1.91
- phosphorylation enrichment (MERTK): 0.963
- phosphorylation enrichment (c-Abl (mouse)): 0.904
- phosphorylation enrichment (c-Src): 0.654

- SH2 binding enrichment (Grb2 SH2): 0.848
- SH2 binding enrichment (SHP2-C SH2): 0.585
- SH2 binding enrichment (c-Src SH2): 0.493
Sequence: QLRPGYIPIPV [BAG3_Y93]
- phosphorylation enrichment (AncSZ): 0.953
- phosphorylation enrichment (EPHB1): 0.774
- phosphorylation enrichment (EPHB2): 0.592
- phosphorylation enrichment (FGFR1): 0.735
- phosphorylation enrichment (FGFR3): 1.09
- phosphorylation enrichment (Fer (mouse)): 0.645
- phosphorylation enrichment (Fes): 0.915
- phosphorylation enrichment (Fyn): 0.736
- phosphorylation enrichment (Hck): 0.639
- phosphorylation enrichment (Jak2): 1.08
- phosphorylation enrichment (MERTK): 0.772
- phosphorylation enrichment (c-Abl (mouse)): 0.796
- phosphorylation enrichment (c-Src): 0.734

- SH2 binding enrichment (Grb2 SH2): 0.71
- SH2 binding enrichment (SHP2-C SH2): 1.26
- SH2 binding enrichment (c-Src SH2): 0.835
Sequence: GITVAYTIPKK [UBA5_Y372]
- phosphorylation enrichment (AncSZ): 0.763
- phosphorylation enrichment (EPHB1): 0.441
- phosphorylation enrichment (EPHB2): 0.331
- phosphorylation enrichment (FGFR1): 0.337
- phosphorylation enrichment (FGFR3): 0.534
- phosphorylation enrichment (Fer (mouse)): 0.384
- phosphorylation enrichment (Fes): 0.739
- phosphorylation enrichment (Fyn): 0.475
- phosphorylation enrichment (Hck): 0.317
- phosphorylation enrichment (Jak2): 0.669
- phosphorylation enrichment (MERTK): 0.528
- phosphorylation enrichment (c-Abl (mouse)): 0.702
- phosphorylation enrichment (c-Src): 0.396
